Reference: article PMC12204516, “Structural basis for higher-order DNA binding by a bacterial transcriptional regulator” (PLOS Genetics, 2025)
Values joined by “and” are separate entries in the source; they are usually repeats but may differ in a detail not shown here. Equal entries are not always repeated.

B1: Xre^Pp antitoxin, untagged, co-expressed and co-purified with RES^Pp_(NHis6) (Xre-RES^Pp_(NHis6) complex) (natural protein, Pseudomonas putida KT2440, UniProt Q88K58 11-159, looked up)
chain: MLAEVLRDNGYHEYRARLQALLDIPELASDFEIHTRITDGFAATWLVKLTERGVLTPVERDQIIPLRTLKSRIERDQPLTVDESDRLFRSAHITAMAEAVFGEAGKAKRWLSKPKERFSGLTPMQMLTTQQGTTQVEEMLLQIAEGYGL
notes: Xre antitoxin (N-terminal HTH domain, C-terminal DUF2384) encoded by xre^Pp of the xre-res locus, Pseudomonas putida KT2440; residues 1-149 built in PDB 9R35 (complete in chain B and others); also called Xre antitoxin
B2: RES^Pp toxin, untagged, co-expressed and co-purified with Xre_(NHis6) (Xre_(NHis6)-RES^Pp complex) (natural protein, Pseudomonas putida KT2440)
chain: MILWRISAYADLSGTGGLRVSGRWHQAGRPVVYAATSPPGAMLEVLVHLEIDPEDFPTTMRLLRIELPDTVSQAQLPALQPGWSAQPELTRTLGNRFLDDCSALLLPVPSAIMPSTTNYLFNPRHPQAQSAKIQVEDFTPDSRLF
notes: also called RES toxin
B3: RES^Pp toxin with N-terminal His6-tag (RES^Pp_(NHis6)), of the Xre-RES^Pp_(NHis6) complex (natural protein, Pseudomonas putida KT2440, UniProt Q88K57 1-145, looked up)
chain: B2 chain
notes: RES-domain NADase toxin encoded by res^Pp of the xre-res locus, Pseudomonas putida KT2440; residues 1-145 built in PDB 9R35; the 13 N-terminal residues from the tag are not seen in the model; also called RES_(His6); RES^Pp_(His6); not shown: His6, N-terminal, kept

Key:
[1] = target: B3; assay: SEC-MALS; Superose 6 Increase 10/300, 20-40 ug per sample, 20 mM HEPES pH 7.5, 150 mM KCl, 5 mM MgCl2, 3 mM BME; details: both partners purified
[2] = target: B3; assay: mass photometry; details: both partners purified
[3] = target: T1, Xre^Pp antitoxin with a N-terminal His6-tag (Xre_(NHis6)), of the Xre_(NHis6)-RES^Pp complex (Pseudomonas putida KT2440, UniProt Q88K58 11-159); assay: SEC; details: both partners purified
T1 construct: also called Xre_(His6); source: E. coli BL21(DE3), pETDuet::xre_(NHis6)-res^Pp, purified with RES (HisTrap FF, Source 15Q, Superdex 200 Increase); not shown: His6, N-terminal, kept
T1 sequence: B1 chain

[4] = target: the molecule itself; assay: mass photometry
[5] = target: the molecule itself; assay: SEC-MALS; Superose 6 Increase 10/300, 20-40 ug per sample, 20 mM HEPES pH 7.5, 150 mM KCl, 5 mM MgCl2, 3 mM BME

## B1
[1]
  stoichiometry N: 2 Xre per RES
[2]
  stoichiometry N: ~2 Xre per RES and ~1.5 Xre per RES and ~1 Xre per RES

## B2
[3]
  stoichiometry N: 1 RES per Xre
[4]
  binding result: binds

## B3
[5]
  binding result: binds
